Test results as given in the supplement of paper PMC9170038.

Columns and labels:
MS2 coat protein [1] = experiment: apparent KD of MS2 coat protein, switch ON state; designed switch direction (-1 OFF switch, 1 ON switch): -1; higher = weaker reporter binding; conditions: FMN input: 0 or 200 uM; Eterna round: R93 (includes R88 designs)
How it was run: (§1)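 Designed RNA switches were made by on-chip transcription from Illumina sequencing clusters and then titrated with SNAP-549-labelled MS2 coat protein. Twofold steps ran from 0.7 or 1.5 nM to 3 µM, each lasting 0.8–1.5 h early and 10–20 min late, in 100 mM Tris-HCl pH 7.5, 80 mM KCl, 4 mM MgCl2, without or with constant ligand. Apparent KD is the per-design median of normalised cluster binding-curve fits.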

MS2 coat protein [2] = experiment: apparent KD of MS2 coat protein, switch OFF state (with FMN for OFF switches, without FMN for ON switches); designed switch direction (-1 OFF switch, 1 ON switch): -1; higher = weaker reporter binding; conditions: FMN input: 0 or 200 uM; Eterna round: R93 (includes R88 designs)
How it was run: as §1

Row | Sequence | apparent KD of MS2 coat protein (MS2 coat protein [1]) | apparent KD of MS2 coat protein (MS2 coat protein [2])
1 | CUCUAGUGAGGAUAUCCAAGAAAAGAAGAGAAAGAAAAGAAGGAGAAGGCACAUGAGGAUCACCCAUGUAAGAA [EteRNA is fun!] | 44.1 nM | 35.8 nM
2 | CUCUUGUCAGGAUAUCCAAGAAAAGAAAAGAAAGAAAAGAAGGAGAAGGGACAUGAGGAUCACCCAUGUAAGAA [EteRNA is fun!] | 72.3 nM | 113 nM
3 | CUCUUGUCAGGAUAUUGAAGAAAAGAAAAGAAAGAAAAGAACAAGAAGGGACAUGAGGAUCACCCAUGUAAGAA [EteRNA is fun!] | 74.2 nM | 60.7 nM
4 | CUCUUGUGAGGAUAUCGAAGAAAAGAAAAGAAAGAAAAGAACGAGAAGGCACAUGAGGAUCACCCAUGUAAGAA [EteRNA is fun!] | 53.1 nM | 61.8 nM
5 | GAAAAACAUGAGGAUCACCCAUGUAAGGAUAUGCUAAAAAACGCAAAAAAAGCGAAUAGCAGAAGGUACAAAAA [Mat - Exclusion 1 - Eli mod - D83] | 20.6 nM | 33.4 nM
6 | GAAAACAGAGGAUAUACGGGAUUGACACGAAAAGUGCAAAAACAUGAGGAUCACCCAUGUAGAAGGCUGAAGAA [Meechl MS2... 60% 2] | 31.5 nM | 42.5 nM
7 | GAAAAGGCAGGAUAUGCAAGGAUAUAGAAGGAAAAAAAAAAACAUGAGGAUCACCCAUGUAGAAGGGCCAAAAG [salish99-ex2-10] | 57.2 nM | 33.5 nM
8 | GAAAAGUCAGGAUAUAUGCGAAAAAUAAAAAAAAUAAAAACAUAGAAGGGACAUGAGGAUCACCCAUGUUAAAA [Mat - Exclusion 4 - Mayanna - D134] | 41.6 nM | 29.7 nM
9 | GAAAAGUCAGGAUAUGUACAAAAUAAAAUAAAAAUAAAAGUACAGAAGGGACAUGAGGAUCACCCAUGUAAAAG [Mat - Exclusion 4 - Mayanna - D120] | 72.4 nM | 54.2 nM
10 | GAAAAGUUAGGAUAUACAGAUAAAAAAACGAAAAAAAAUCUGUAGAAGGAACAUGAGGAUCACCCAUGUAAAAG [Mat - Exclusion 4 - Mayanna - D103] | 34.7 nM | 30.8 nM
11 | GAAGAACAUGAGGAUCACCCAUGUCAGGAUAUACAGAAGGGAAUAAUAAAAUCUGGAAGUAGAAGGGACAAGAA [Ex 1 May 46] | 32.5 nM | 49.3 nM
12 | GAAGAACAUGAGGAUCACCCAUGUCAGGAUAUACAGAAGGGAAUAAUAUAACCUGAAAGUAGAAGGGACAAGAA [Ex 1 May 43] | 33.9 nM | 46.2 nM
13 | GAAUGACUAGGAUAUACAUGAGGAUCACCCAUGUGUAUAAAUAAAUACACAAAAGAAAGUAGAAGGAGUCAAAG [Mat - Exclusion 3 - Mayanna mod - D124] | 20.8 nM | 83.2 nM
14 | GAGAAGUUAGGAUAUACAGCGGGUAGCCGCGGUGGCCUUAGACAUGAGGAUCACCCAUGUAGAAGGAACGAAAA [Tebied] | 28.9 nM | 12.6 nM
15 | GAUCAGCUAGGAUAUACAUUAAUCCGAAAUGAGAAGAAAGAACAUGAGGAUCACCCAUGUAGAAGGAGCCAGUA [Usinisat] | 33.7 nM | 32.1 nM
16 | GCAAAGUGAGGAUAUACGCGAACAAAAAUAAAAAAGAAAGCGUAGAAGGCACAUGAGGAUCACCCAUGUCCAGC [Mat - Exaclusion 4 - Eli mod - D77] | 23.7 nM | 30.3 nM
17 | GCAGGCCAAGGAUAUACAUGAGGAUCACCCAUGUGAGAGAAAAAAGUGAGAAAGAAAAGUAGAAGGUGGUUUGG [salish99-ex3-113] | 71.7 nM | 114 nM
18 | GCUGGCGUAGGAUAUACAUGAGGAUCACCCAUGUGAGAGAAAAAAGUGAGAAAGAAAAGUAGAAGGACGUUAGG [salish99-ex3-116] | 40.4 nM | 106 nM
19 | GCUUGGGUAGGAUAUACAUGAGGAUCACCCAUGUGAGAGAAAAAAGUGAGAAAGAAAAGUAGAAGGACCUGAGG [salish99-ex3-107] | 123 nM | 244 nM
20 | GGAAAACAUGAGGAUCACCCAUGUGAGGAUAUCGAUGUCCAAACCAAAGUGCGGGACUCGAGAAGGCACUUGGA [salish99-ex1-37] | 45.9 nM | 28.6 nM
21 | GGAAAGCAAGGAUAUACAAACAAACAAACAAACAAAAGGGAACAUGAGGAUCACCCAUGUAGAAGGUGCAAACA [Exclusion 2 XX] | 41 nM | 31.8 nM
22 | GGAUGCCAAGGAUAUACAUGAGGAUCACCCAUGUGAGAGAAAAAAGUGAGAAAGAAAAGUAGAAGGUGGUGUCG [salish99-ex3-92] | 33.1 nM | 65.2 nM
23 | GGAUGUCUAGGAUAUACAUGAGGAUCACCCAUGUGAGAGAAAAAAGUGAGAAAGAAAAGUAGAAGGAGGUGUCG [salish99-ex3-88] | 35.6 nM | 37.5 nM
